{"source": "patent US20210095300", "about": "“INTERFERING WITH HD-ZIP TRANSCRIPTION FACTOR REPRESSION OF GENE EXPRESSION TO PRODUCE PLANTS WITH ENHANCED TRAITS” (Monsanto Technology LLC, published 2021)", "binders": {"B1": {"name": "Class I oligo (BS1) (dsDNA)", "DNA 1": "CAGACAATTATTGCGGC", "DNA 2": "GCCGCAATAATTGTCTG"}, "B2": {"name": "Class II oligo (BS2) (dsDNA)", "DNA 1": "CAGACAATCATTGCGGC", "DNA 2": "GCCGCAATGATTGTCTG"}, "B3": {"name": "non consensus oligo (random DNA) (dsDNA)", "DNA 1": "CAGCTCAGTCTGACGGC", "DNA 2": "GCCGTCAGACTGAGCTG"}}, "key": {"ATHB17Δ113 [1]": {"target": "T1, ATHB17Δ113 (Arabidopsis thaliana, UniProt Q8S9N6 SEQ:1-162)", "T1 chain": "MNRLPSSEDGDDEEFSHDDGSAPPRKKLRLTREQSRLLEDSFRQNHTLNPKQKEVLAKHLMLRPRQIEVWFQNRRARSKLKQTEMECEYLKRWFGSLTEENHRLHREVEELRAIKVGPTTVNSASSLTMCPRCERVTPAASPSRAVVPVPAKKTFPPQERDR", "experiment": "SPR; Biacore 2000; unit from p118", "conditions": "chain copies: 2 (homodimer, inferred)"}, "ATHB17Δ113-R190K [2]": {"target": "T2, ATHB17Δ113-R190K (Arabidopsis thaliana, UniProt Q8S9N6 SEQ:1-162, R190K (full-length numbering))", "T2 sequence": "T1 chain with R77K", "experiment": "SPR; no significant change vs parent", "conditions": "chain copies: 2 (homodimer, inferred)"}, "[3]": {"target": "T3, ATHB17Δ113-V182A-Q185A-N186A (Arabidopsis thaliana, UniProt Q8S9N6 SEQ:1-162)", "T3 chain": "T1 chain with V69A, Q72A, N73A", "experiment": "SPR; loses interaction with BS1", "excerpt": "(§1) HD-Zip I and II proteins bind to similar cis elements (CAAT(N)ATTG) under in vitro conditions (Sessa et al., EMBO J 12:3507-3517, 1993); Meijer et al., Mol Gen Genet 263:12-21, 2000); Frank et al., Plant J Cell Molec Biol 15:413-421, 1998); Deng et al., Plant Mol Biol 49:601-610, 2002). HD-Zip II members bind preferentially to the pseudo-palindromic sequence CAAT(C/G)ATTG (SEQ ID NO:55) (Sessa et al., EMBO J 12:3507-3517, 1993), whereas members of the HD-Zip I subfamily bind preferentially to a pseudo-palindromic sequence that differs from that of HD-Zip II at the central nucleotide (CAAT(A/T)ATTG) (SEQ ID NO:56) (Ariel et al., Trends Plant Sci 12:419-426, 2007). The DNA-binding properties of ATHB17Δ113 was tested in vitro using a surface plasmon resonance (SPR) assay for both class I and class II recognition sequences. The oligonucleotides used in this assay were […] (Class II), […] (Class I), and […] (non consensus), where the pseudo-palindromic sequences flanked by four nucleotides at the 5′ end and 3′end of the oligo are underlined.\n(§2) ATHB17 amino acid substitutions and domain deletions were generated by comparing the ATHB17 protein sequence with those of mammalian HD and other plant HD-Zip transcription factors. These variants were evaluated for their DNA binding properties using SPR on Biacore 2000 as described in Example 2."}, "ATHB17Δ113-Δ138-195 [4]": {"target": "T4, ATHB17Δ113-Δ138-195 (Arabidopsis thaliana)", "T4 chain": "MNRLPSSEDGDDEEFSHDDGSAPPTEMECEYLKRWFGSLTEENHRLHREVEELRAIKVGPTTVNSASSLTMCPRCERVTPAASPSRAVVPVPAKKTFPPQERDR", "experiment": "SPR; homeodomain deletion; similar results stated", "excerpt": "as §1, §2"}, "ATHB17Δ113-F155L [5]": {"target": "T5, ATHB17Δ113-F155L (Arabidopsis thaliana, UniProt Q8S9N6 SEQ:1-162)", "T5 chain": "T1 chain with W70F", "experiment": "SPR", "conditions": "chain copies: 2 (homodimer, inferred)", "excerpt": "as §1, §2"}, "[6]": {"target": "T6, ATHB17Δ113-C200A-C243S-C246S (Arabidopsis thaliana, UniProt Q8S9N6 SEQ:1-162)", "T6 chain": "T1 chain with C87A, C130S, C133S", "experiment": "SPR", "excerpt": "as §1, §2"}, "ATHB17Δ113-C246S [7]": {"target": "T7, ATHB17Δ113-C246S (Arabidopsis thaliana, UniProt Q8S9N6 SEQ:1-162)", "T7 chain": "T1 chain with C133S", "experiment": "SPR", "conditions": "chain copies: 2 (homodimer, inferred)", "excerpt": "as §1, §2"}, "ATHB17Δ113-C243S [8]": {"target": "T8, ATHB17Δ113-C243S (Arabidopsis thaliana, UniProt Q8S9N6 SEQ:1-162)", "T8 chain": "T1 chain with C130S", "experiment": "SPR", "conditions": "chain copies: 2 (homodimer, inferred)", "excerpt": "as §1, §2"}, "ATHB17Δ113-C243S-C246S [9]": {"target": "T9, ATHB17Δ113-C243S-C246S (Arabidopsis thaliana, UniProt Q8S9N6 SEQ:1-162)", "T9 chain": "T1 chain with C130S, C133S", "experiment": "SPR", "conditions": "chain copies: 2 (homodimer, inferred)", "excerpt": "as §1, §2"}, "ATHB17Δ113-R190K [10]": {"target": "T2, ATHB17Δ113-R190K", "experiment": "SPR; reduced affinity to BS2", "conditions": "chain copies: 2 (homodimer, inferred)"}, "ATHB17Δ113 [11]": {"target": "T1, ATHB17Δ113", "experiment": "SPR; Biacore 2000; kon 42.3e5, koff 880.6e-4", "conditions": "chain copies: 2 (homodimer, inferred)", "excerpt": "as §1, §2"}, "[12]": {"target": "T10, ATHB17Δ113-T196A-L203A-L210A-L217A-L224A (Arabidopsis thaliana, UniProt Q8S9N6 SEQ:1-162)", "T10 chain": "T1 chain with T83A, L90A, L97A, L104A, L111A", "experiment": "SPR; leucine zipper mutant"}, "[13]": {"target": "T3, ATHB17Δ113-V182A-Q185A-N186A", "experiment": "SPR; no binding within the concentration range used", "excerpt": "as §1, §2"}, "ATHB17Δ113-W183F [14]": {"target": "T11, ATHB17Δ113-W183F (Arabidopsis thaliana, UniProt Q8S9N6 SEQ:1-162)", "T11 chain": "T1 chain with W70F", "experiment": "SPR; asterisked in table; text says 11 uM, significantly reduced but not completely suppressed", "conditions": "chain copies: 2 (homodimer, inferred)", "excerpt": "as §1, §2"}, "ATHB17Δ113-Δ194-224 [15]": {"target": "T12, ATHB17Δ113-Δ194-224 (Arabidopsis thaliana)", "T12 chain": "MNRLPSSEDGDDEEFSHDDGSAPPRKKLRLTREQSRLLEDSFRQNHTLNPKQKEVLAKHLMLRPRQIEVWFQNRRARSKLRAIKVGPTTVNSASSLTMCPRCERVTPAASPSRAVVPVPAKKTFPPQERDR", "experiment": "SPR; leucine zipper deletion", "excerpt": "as §1, §2"}, "ATHB17Δ113-Δ138-195 [16]": {"target": "T4, ATHB17Δ113-Δ138-195", "experiment": "SPR; homeodomain deletion", "excerpt": "as §1, §2"}, "ATHB17Δ113 [17]": {"target": "T1, ATHB17Δ113", "experiment": "SPR; random DNA did not interact with any protein tested", "conditions": "chain copies: 2 (homodimer, inferred)", "excerpt": "as §1, §2"}, "ATHB17Δ113-F155L [18]": {"target": "T5, ATHB17Δ113-F155L", "experiment": "SPR; random DNA", "conditions": "chain copies: 2 (homodimer, inferred)", "excerpt": "as §1, §2"}, "[19]": {"target": "T3, ATHB17Δ113-V182A-Q185A-N186A", "experiment": "SPR; random DNA", "excerpt": "as §1, §2"}, "[20]": {"target": "T10, ATHB17Δ113-T196A-L203A-L210A-L217A-L224A", "experiment": "SPR; random DNA", "excerpt": "as §1, §2"}, "ATHB17Δ113-W183F [21]": {"target": "T11, ATHB17Δ113-W183F", "experiment": "SPR; random DNA", "conditions": "chain copies: 2 (homodimer, inferred)", "excerpt": "as §1, §2"}, "[22]": {"target": "T6, ATHB17Δ113-C200A-C243S-C246S", "experiment": "SPR; random DNA", "excerpt": "as §1, §2"}, "ATHB17Δ113-Δ138-195 [23]": {"target": "T4, ATHB17Δ113-Δ138-195", "experiment": "SPR; random DNA", "excerpt": "as §1, §2"}, "ATHB17Δ113-C246S [24]": {"target": "T7, ATHB17Δ113-C246S", "experiment": "SPR; random DNA", "conditions": "chain copies: 2 (homodimer, inferred)", "excerpt": "as §1, §2"}, "ATHB17Δ113-C243S [25]": {"target": "T8, ATHB17Δ113-C243S", "experiment": "SPR; random DNA", "conditions": "chain copies: 2 (homodimer, inferred)", "excerpt": "as §1, §2"}, "ATHB17Δ113-C243S-C246S [26]": {"target": "T9, ATHB17Δ113-C243S-C246S", "experiment": "SPR; random DNA", "conditions": "chain copies: 2 (homodimer, inferred)", "excerpt": "as §1, §2"}, "ATHB17Δ113-Δ194-224 [27]": {"target": "T12, ATHB17Δ113-Δ194-224", "experiment": "SPR; random DNA", "excerpt": "as §1, §2"}}, "note": "Positions count from the first letter of the chain named.", "data": [{"binder": "B1", "values": [{"measurement": "Kd", "setting": "ATHB17Δ113 [1]", "value": 37.7, "unit": "nM"}, {"measurement": "Kd", "setting": "ATHB17Δ113-R190K [2]", "value": 25.7, "unit": "nM"}, {"measurement": "binding result", "setting": "[3]", "value": "no binding"}, {"measurement": "binding result", "setting": "ATHB17Δ113-Δ138-195 [4]", "value": "no binding"}]}, {"binder": "B2", "values": [{"measurement": "Kd", "setting": "ATHB17Δ113-F155L [5]", "value": 3630, "unit": "nM"}, {"measurement": "binding result", "setting": "[6]", "value": "no binding"}, {"measurement": "Kd", "setting": "ATHB17Δ113-C246S [7]", "value": 63.6, "unit": "nM"}, {"measurement": "Kd", "setting": "ATHB17Δ113-C243S [8]", "value": 82.2, "unit": "nM"}, {"measurement": "Kd", "setting": "ATHB17Δ113-C243S-C246S [9]", "value": 41.1, "unit": "nM"}, {"measurement": "Kd", "setting": "ATHB17Δ113-R190K [10]", "value": 68.2, "unit": "nM"}, {"measurement": "Kd", "setting": "ATHB17Δ113 [11]", "value": 20.4, "unit": "nM"}, {"measurement": "binding result", "setting": "[12]", "value": "no binding"}, {"measurement": "binding result", "setting": "[13]", "value": "no binding"}, {"measurement": "Kd", "setting": "ATHB17Δ113-W183F [14]", "value": 11000, "unit": "nM"}, {"measurement": "Kd", "setting": "ATHB17Δ113-Δ194-224 [15]", "value": 4800, "unit": "nM"}, {"measurement": "binding result", "setting": "ATHB17Δ113-Δ138-195 [16]", "value": "no binding"}]}, {"binder": "B3", "values": [{"measurement": "binding result", "setting": "ATHB17Δ113 [17]", "value": "no binding"}, {"measurement": "binding result", "setting": "ATHB17Δ113-F155L [18]", "value": "no binding"}, {"measurement": "binding result", "setting": "[19]", "value": "no binding"}, {"measurement": "binding result", "setting": "[20]", "value": "no binding"}, {"measurement": "binding result", "setting": "ATHB17Δ113-W183F [21]", "value": "no binding"}, {"measurement": "binding result", "setting": "[22]", "value": "no binding"}, {"measurement": "binding result", "setting": "ATHB17Δ113-Δ138-195 [23]", "value": "no binding"}, {"measurement": "binding result", "setting": "ATHB17Δ113-C246S [24]", "value": "no binding"}, {"measurement": "binding result", "setting": "ATHB17Δ113-C243S [25]", "value": "no binding"}, {"measurement": "binding result", "setting": "ATHB17Δ113-C243S-C246S [26]", "value": "no binding"}, {"measurement": "binding result", "setting": "ATHB17Δ113-Δ194-224 [27]", "value": "no binding"}]}]}
